From publication PMC4959569

What was measured:
[1] = Western blot densitometry, antibody 7.3; conditions: glycan lost; control: untreated SK-N-MC cells
[2] = Q-PCR normalised to EWS-FLI1 protein level; conditions: control: mock treated SK-N-MC cells

B1: EWS-FLI1: DON (protein)
parent chain: MASTDYSTYSQAAAQQGYSAYTAQPTQGYAQTTQAYGQQSYGTYGQPTDVSYTQAQTTATYGQTAYATSYGQPPTGYTTPTAPQAYSQPVQGYGTGAYDTTTATVTTTQASYAAQSAYGTQPAYPAYGQQPAATAPTRPQDGNKPTETSQPQSSTGGYNQPSLGYGQSNYSYPQVPGSYPMQPVTAPPSYPPTSYSSTQPTSYDQSSYSQQNTYGQPSSYGQQSSYGQQSSYGQQPPTSYPPQTGSYSQAPSQYSQQSSSYGQQSSFRQDHPSSMGVYGQESGGFSGPGENRSMSGPDNRGRGRGGFDRGGMSRGGRGGGRGGMGSAGERGGFNKPGGPMDEGPDLDLGPPVDPDEDSDNSAIYVQGLNDSVTLDDLADFFKQCGVVKMNKRTGQPMIHIYLDKETGKPKGDATVSYEDPPTAKAAVEWFDGKDFQGSKLKVSLARKKPPMNSMRGGLPPREGRGMPPPLRGGPGGPGGPGGPMGRMGGRGGDRGGFPPRGPRGSRGNPSGGGNVQHRAGDWQCPNPGCGNQNFAWRTECNQCKAPKPEGFLPPPFPPPGGDRGRGGPGGMRGGRGGLMDRGGPGGMFRGGRGGDRGGFRGGRGMDRGGFGGGRRGGPGGPPGPLMEQMGGRRGGRGGPGKMDKGEHRQERRDRPY
[1]
  expression_or_secretion, percent_of_wt: decreases
[2]; glycan lost
  other: transcriptional repression of target gene: no change

B2: EWS-FLI1: STZ (protein)
parent chain: B1 parent chain
[2]; glycan gained
  other: transcriptional activation of target gene, fold_change: no change
  other: transcriptional repression of target gene: no change
